Assay results reported in the supplement of paper PMC9170038.

Test system: MS2 coat protein
Test: apparent KD of MS2 coat protein; designed switch direction (-1 OFF switch, 1 ON switch): -1; higher = weaker reporter binding
Outline: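 RNA switches sharing common flanks were transcribed by stalled E. coli RNA polymerase on Illumina chips. A doubling series of SNAP-549-labelled MS2 coat protein, from 0.7 or 1.5 nM to 3 µM, was applied in Tris-HCl pH 7.5 buffer with KCl, MgCl2, BSA, DTT, tRNA and Tween-20. Each step lasted 0.8–1.5 h at the bottom of the series and 10–20 min at the top. Normalised cluster fluorescence was curve-fitted, giving apparent KD as the per-design median over clusters.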

[1] = Eterna round: R95, input ligand: FMN 200 uM
[2] = Eterna round: R95, input ligand: microRNA oligo, concentration not stated
[3] = Eterna round: R95, input ligand: none
[4] = input ligand: microRNA oligo, concentration not stated

Sequence	apparent KD of MS2 coat protein [1] [nM]	apparent KD of MS2 coat protein [2] [nM]	apparent KD of MS2 coat protein [3] [nM]	apparent KD of MS2 coat protein (input ligand: FMN 200 uM) [nM]	apparent KD of MS2 coat protein (input ligand: none) [nM]	apparent KD of MS2 coat protein [4] [nM]
GGAUAAGGCGAGGAUAUCCAGAAACCCGACAAAGGAGAAGGCGCAACAUGAGGAUCACCCAUGUGGGUGCAUGU [Xeaormara] (puzzle: Exclusion 6)	1080	254	280			
GUAGAGUCAGGAUAUACGAGAUCGAAAGAUCAAAGAUCCUUACAUGAGGAUCACCCAUGUAGAAGGGACUCUAC [Eli x2 4.14] (Eterna round: R97, puzzle: Exclusion 2)				574	37.1	
GGGCCCGGUGUGAGGAUAUUUCGAGUGAAAGCUUGAGAGAAGGCACAUGAGGAUCACCCAUGUAAGCCGGGCCC [-36.4, -34.3 kcal, A 26%, 1bis-0] (Eterna round: R97, puzzle: Brourd's mod of Exclusion 4)				15.1	17.8	
AAGAAGUCAGGAUAUGCUAAAGAAAUAAAAAGAAAGAAAGAACAUGAGGAUCACCCAUGUAGAAGGGACAAGAA [Seheqenre Sankhptahi] (Eterna round: R96, puzzle: Exclusion 2)						31.8
CUUUUGUGAGGAUAUCAGUAGUAAUAAUAUAAAAUUACUACUGAGAAGGCACAUGAGGAUCACCCAUGUUCCUC [salish99_ex3_r3_102] (puzzle: Exclusion 4)		36.3				
UUAUACGUUGAGGAUAUGUUAUUUAGUAUAGUUACAGAAGGCGAUACAUGAGGAUCACCCAUGUUUAUGGGCAU [Ex-6 Malc#1] (puzzle: Exclusion 6)		196				
CCUUAACAUGAGGAUCACCCAUGUGAGGAUAUGAUGCAGCAGUGGUCUACGCUGUGCAUCAGAAGGUACAUGGU (Eterna round: R96, puzzle: Exclusion 1)				291	44.5	35.9
CCGCGACAUGAGGAUCACCCAUGUUAGGAUAUGUGCGCCAACCAAGGAAUUGGUAGGUACAGAAGGAGCUGGGU [Eternabot (L2) Solution 97] (Eterna round: R97, puzzle: Exclusion 1)				149	56.3	
UUUUUAUAUGAAGGAUAUACUUAACAUGAGGAUCACCCAUGUGGUGUUGUGAGUGAGUGAGUUUAGUAGAAGGUCAAUUCUUAU [JMF's solution 82] (Eterna round: R96, puzzle: Exclusion NG 2)				516	395	651
GUAGAGUCAGGAUAUACGGGAUCGAAAGAUCGGCGAUCCAUACAUGAGGAUCACCCAUGUAGAAGGGACUCUAC [Omei mod 10 to Eli's favorate candidate (ch.parushev)] (Eterna round: R97, puzzle: Exclusion 2)				189	22.7	
GCCAGAGCAGGAUAUUCAAUAAUUCACAUGAGGAUCACCCAUGUCGAGCGAAAGCUCGAGGGAGAAGGGCUCUGGC [Fiskers Ex 5 - 6] (puzzle: Exclusion 5)	14.3	34.8	39.4			
UUUAAUUUUUUUUUUUUACAAGCUUUUUGCUCGUCUUAUACAUGAGGAUCACCCAUGUAAAUGGAAGGUAAAUUAUC [JMF 67] (puzzle: Sensor v3, turn-off variant 2)	15.5	17.3	13.5			
UUUGUUUAUGUAGGAUAUGCCUGGCGUGCCUUUGCAGAAGGACAUGAGGAUCACCCAUGUAUUGCGGUCUGCGUUCAGAUCGCU [salish99_ExNG1_r4_037] (Eterna round: R96, puzzle: Exclusion NG 1)				37.1	34.8	26.8
UUUUAACAUGAGGAUCACCCAUGUGAGGAUAUCGAAAUUUAUAUUAAUAUUAAUUAAACGAGAAGGCACAUUUU [JMF 27] (puzzle: Exclusion 1)		72.5				
